The target in the experiment is T1, KIF1C-GFP (recombinant full-length human KIF1C, 6His-KIF1C-GFP) (human, UniProt O43896 1-1103).
T1 sequence (looked up): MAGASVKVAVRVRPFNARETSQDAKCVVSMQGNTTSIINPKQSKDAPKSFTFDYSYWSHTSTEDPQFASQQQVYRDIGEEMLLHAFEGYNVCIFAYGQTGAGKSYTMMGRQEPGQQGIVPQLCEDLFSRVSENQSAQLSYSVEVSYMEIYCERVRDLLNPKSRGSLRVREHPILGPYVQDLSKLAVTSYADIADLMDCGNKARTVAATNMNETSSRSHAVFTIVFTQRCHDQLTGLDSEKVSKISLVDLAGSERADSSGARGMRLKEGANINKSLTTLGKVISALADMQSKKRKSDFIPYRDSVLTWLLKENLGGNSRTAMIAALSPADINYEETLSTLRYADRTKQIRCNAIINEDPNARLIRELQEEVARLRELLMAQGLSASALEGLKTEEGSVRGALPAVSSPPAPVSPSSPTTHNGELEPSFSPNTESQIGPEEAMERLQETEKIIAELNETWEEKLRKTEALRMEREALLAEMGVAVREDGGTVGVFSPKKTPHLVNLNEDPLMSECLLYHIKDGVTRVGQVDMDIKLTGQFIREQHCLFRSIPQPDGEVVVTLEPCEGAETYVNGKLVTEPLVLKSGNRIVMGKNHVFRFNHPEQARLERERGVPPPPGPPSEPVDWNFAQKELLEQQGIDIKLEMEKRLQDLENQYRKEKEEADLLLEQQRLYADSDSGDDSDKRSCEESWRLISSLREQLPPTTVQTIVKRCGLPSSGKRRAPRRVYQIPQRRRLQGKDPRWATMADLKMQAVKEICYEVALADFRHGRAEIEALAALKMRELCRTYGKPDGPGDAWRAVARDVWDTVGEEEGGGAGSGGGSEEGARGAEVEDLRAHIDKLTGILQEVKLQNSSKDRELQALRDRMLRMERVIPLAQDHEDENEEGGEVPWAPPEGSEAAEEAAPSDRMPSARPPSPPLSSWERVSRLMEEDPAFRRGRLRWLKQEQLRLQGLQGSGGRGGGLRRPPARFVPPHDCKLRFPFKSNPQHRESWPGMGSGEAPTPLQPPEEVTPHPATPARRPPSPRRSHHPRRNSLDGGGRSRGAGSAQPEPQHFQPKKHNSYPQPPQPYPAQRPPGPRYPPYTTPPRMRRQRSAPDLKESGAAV
The experiment in a line: cell-based or functional assay.

B1: Hook3-SNAPf labelled with Alexa647 (recombinant human Hook3 with a C-terminal SNAP-tag) (natural protein, UniProt Q86VS8 1-718, looked up)
chain: MFSVESLERAELCESLLTWIQTFNVDAPCQTVEDLTNGVVMAQVLQKIDPAYFDENWLNRIKTEVGDNWRLKISNLKKILKGILDYNHEILGQQINDFTLPDVNLIGEHSDAAELGRMLQLILGCAVNCEQKQEYIQAIMMMEESVQHVVMTAIQELMSKESPVSAGNDAYVDLDRQLKKTTEELNEALSAKEEIAQRCHELDMQVAALQEEKSSLLAENQVLMERLNQSDSIEDPNSPAGRRHLQLQTQLEQLQEETFRLEAAKDDYRIRCEELEKEISELRQQNDELTTLADEAQSLKDEIDVLRHSSDKVSKLEGQVESYKKKLEDLGDLRRQVKLLEEKNTMYMQNTVSLEEELRKANAARSQLETYKRQVVELQNRLSEESKKADKLDFEYKRLKEKVDSLQKEKDRLRTERDSLKETIEELRCVQAQEGQLTTQGLMPLGSQESSDSLAAEIVTPEIREKLIRLQHENKMLKLNQEGSDNEKIALLQSLLDDANLRKNELETENRLVNQRLLEVQSQVEELQKSLQDQGSKAEDSVLLKKKLEEHLEKLHEANNELQKKRAIIEDLEPRFNNSSLKIEELQEALRKKEEEMKQMEERYKKYLEKAKSVIRTLDPKQNQGAAPEIQALKNQLQERDRLFHSLEKEYEKTKSQREMEEKYIVSAWYNMGMTLHKKAAEDRLASTGSGQSFLARQRQATSSRRSYPGHVQPATAR
modifications: Alexa Fluor 647 on the SNAP tag (SNAP-Surface Alexa Fluor 647)
Consider B1, for which the “landing rate of KIF1C-GFP on microtubules in single molecule assays, 320 nM KIF1C preincubated with 500 nM Hook3-647” value is 2 fold.

These data come from doi:10.1101/488049 (bioRxiv, 2018).
